{
  "source": "paper PMC3894216",
  "about": "(PLoS Pathogens, 2014)",
  "proteins": {"B1": {"name": "GST-CNF1 N-terminal fragment (aa 1-342) (domain or fragment)", "chain": "MGNQWQQKYLLEYNELVSNFPSPERVVSDYIKNCFKTDLPWFSRIDPDNAYFICFSQNRSNSRSYTGWDHLGKYKTEVLTLTQAALINIGYRFDVFDDANSSTGIYKTKSADVFNEENEEKMLPSEYLHFLQKCDFAGVYGKTLSDYWSKYYDKFKLLLKNYYISSALYLYKNGELDEREYNFSMNALNRSDNISLLFFDIYGYYASDIFVAKNNDKVMLFIPGAKKPFLFKKNIADLRLTLKELIKDSDKQQLLSQHFSLYSRQDGVSYAGVNSVLHAIENDGNFNESYFLYSNKTLSNKDVFDAIAISVKKRSFSDGDIVIKSNSEAQRDYALTILQTIL"}},
  "target": "the molecule itself",
  "assay": "SDS-stable oligomer band of the purified protein",
  "data": [
    {"protein": "B1", "values": [
      {"measurement": "stoichiometry N", "value": 4}
    ]}
  ]
}
